One substance from publication PMC9361567 can be followed below.

Where “and” joins values, the source holds several entries; their conditions need not be identical. Identical values can stand only once.

Usually stoichiometry N stands for the number of molecules, sites or subunits per partner or assembly. The Kd is the constant that tells how readily two partners part at equilibrium.

The target of assay [1] is HALO::PLP^584-1811 WT (purified from Sf9) (Drosophila). Put plainly: mass photometry.
Assay [2] deals with KHC + LC (Kinesin-1 HC-LCs complex) (Drosophila) (UniProt P17210). Description: BLI. (In BLI a coated tip is dipped into the sample, and binding shifts an interference pattern.)
Assay [3] deals with KHC^Δh2 + LC (Drosophila) (UniProt P17210). Put plainly: BLI.

On to “HALO::PLP^584-1811 WT (purified from Sf9) (domain or fragment)”, for which, in assay [1], the stoichiometry N was 2 and 4. Besides, the Kd in assay [2] was 1700 nM; in assay [3], 65 nM.
